Measured values published in patent publication US6310180.

test system: substrate IV, H-Lys-Ala-Arg-Val-Nle-Phe(p-NO2)-Glu-Ala-Nle-NH2; test: steady-state kinetics of substrate IV hydrolysis at 22° C., RP HPLC; the filing calls Km the binding affinity

Substance | Km [µM]
[Leu-NHCH2-Thz^38-39, Abu^67,95]-HIV-1 PR | 11.4
[Ala^38, SPro^39, Abu^67,95]-HIV-1 PR | 8.2
[SPro^39, Abu^67,95]-HIV-1 PR | 11.9
recombinant HIV-1 PR | 10.1

target: substrate IV, H-Lys-Ala-Arg-Val-Nle-Phe(p-NO2)-Glu-Ala-Nle-NH2 (HIV); test: not given

Substance | kcat/Km, hydrolysis of substrate IV
recombinant HIV-1 PR (enzyme) | 121000 M^-1, S^-1
[Ala^38, SPro^39, Abu^67,95]-HIV-1 PR (enzyme) | 98400 M^-1, S^-1
[Leu-NHCH2-Thz^38-39, Abu^67,95]-HIV-1 PR (enzyme) | 36300 M^-1, S^-1
[SPro^39, Abu^67,95]-HIV-1 PR (enzyme) | 119000 M^-1, S^-1
